Measurements reported in patent US12699101B2, “Maximizing hydrophobic peptide recovery using a mass spectrometry compatible surfactant” (Regeneron Pharmaceuticals, Inc., priority 2022, dated 2026).
Where no end group is shown, it is not given here.

Assay: PRM target quantification of synthetic mAb peptide standards diluted with DDM, FA or cell digest matrix
Format: physicochemical
Conditions: 10 fmol/μl peptide mixture, triplicate; for Ratio of Average Peak Area DDM Diluted/FA Diluted: 0.015% DDM vs 0.1% FA (control); for Ratio of Average Peak Area Matrix Diluted/FA Diluted: complex HeLa cell lysate digest matrix vs 0.1% FA (control)
Method: HeLa cell lysate protein digests were diluted to 0.05 ng/μL by 0.1% FA or 0.015% DDM solution, and 0.2 ng (4 μL) was injected onto the LC-MS to simulate single cell sample analysis. Sixteen synthetic peptides from a mAb's constant region and CDR were diluted and mixed to a final concentration of 10 fmol/μL by 0.1% FA, 0.015% DDM solution or complex cell digest matrix. In reconstitution experiments, 20 μL of 500 fmol/μL BSA digests and 200 ng/μL HeLa digests were aliquoted into vials and dried in vacuo. Dried samples were reconstituted by 0.1% FA or 0.015% DDM solution. One picomole BSA digests and 100 ng HeLa digests were loaded onto the column for nanoLC-MS/MS analysis.
PRM target quantification was performed on an Orbitrap Exploris 480 mass spectrometer equipped with an UltiMate 3000 RSLCnano system and 75 μm ID×25 cm C18 column (CoAnn Technologies, 360 μm OD). A short gradient with a flow rate of 0.3 μL/min was set up as follows: 5% B at 0 min, 8% B at 3 min, 40% B at 20 min, and 95% B from 30-35 min. The m/z of the most intense surrogate peptide peak was selected for PRM analysis with 5 minutes windows. MS/MS spectra were acquired using HCD with a normalized collision energy of 30% at a resolution of 30K (m/z 200) and a maximum injection time of 100 ms.
Database searches for protein identification were performed using SEQUEST and Mascot embedded into Proteome Discoverer 2.2 (Thermo Fisher Scientific). The human UniProt target-decoy protein database including common contaminants was used for HeLa sample database searches. Precursor ion mass tolerance was set to 20 ppm and fragment ion mass tolerance was set to 0.02 Da. Trypsin was specified as the digestion enzyme during the database search with one missed cleavage allowed. Methionine oxidation (+16 Da) was selected as a variable modification and cysteine carbamidomethylation was chosen as a fixed modification for the normal (alkylated) digests. False discovery rates (FDRs) were set to 1% for peptide identification and 5% for protein identification. Peptide mapping and BSA sample data were analyzed using Protein Metrics Byonic™ (version 3.11.3) by searching the raw files against the mAb or BSA protein sequence. All peptide quantification was executed using Skyline Daily software (University of Washington, WA) by extracting the MS' peak area of all detected charge states. The three most intense fragment peaks free of interference were selected for PRM target quantification. Empower (Milford, MA) was employed to extract UV chromatogram peak areas. The peptide hydrophobicity was calculated using the Peptide Synthesis and Proteotypic Peptide Analyzing Tool from ThermoFisher Scientific (Waltham, MA). GraphPad Prism 9.0.2 (San Diego, CA) was used for correlation analysis and p-value calculation.
In order to optimize a method for characterizing peptides for PK studies, sixteen peptides from different mAb molecules, including 13 CDR peptides and three constant region peptides, were selected and synthesized. Information for the synthetic peptide standards, including stock concentration, dilution, hydrophobicity index value, and retention time is shown in Table 1. All synthetic peptide standards were diluted and mixed as a single peptide mixture with a final concentration of 10 fmol/μl using either a DDM solution, formic acid solution (control) or complex HeLa cell lysate digest matrix. PRM acquisition was then used to quantify the peak area of these 16 target peptides and compare results between different samples. Detailed PRM setting information is listed in Table 2 including m/z value and charge states of each target peptide. Each sample was analyzed in triplicate, and average peak areas for each peptide from the DDM prepared samples and matrix prepared samples were compared with the control samples.

DNSLTAPYVFGTGTK [synthetic mAb CDR peptide standard]
Ratio of Average Peak Area DDM Diluted/FA Diluted: 1.4 | Ratio of Average Peak Area Matrix Diluted/FA Diluted: 1.1

LLIYDASNLK [synthetic mAb CDR peptide standard]
Ratio of Average Peak Area DDM Diluted/FA Diluted: 1.2 | Ratio of Average Peak Area Matrix Diluted/FA Diluted: 1.4

LLIYAASNLETGVPSR (also: Arg16 stable isotope labeled, +10 Da) [synthetic mAb CDR peptide standard]
Ratio of Average Peak Area DDM Diluted/FA Diluted: 5.5 | Ratio of Average Peak Area Matrix Diluted/FA Diluted: 2.7

TNYLKPTHQTNTIIDVVLSPSH [synthetic mAb constant region peptide standard]
Ratio of Average Peak Area DDM Diluted/FA Diluted: 18.4 | Ratio of Average Peak Area Matrix Diluted/FA Diluted: 32.1

VTISCTGSSSNIGTHY [synthetic mAb CDR peptide standard]
Ratio of Average Peak Area DDM Diluted/FA Diluted: 1.1 | Ratio of Average Peak Area Matrix Diluted/FA Diluted: 1.4

DTAVYYCASGS [synthetic mAb CDR peptide standard]
Ratio of Average Peak Area DDM Diluted/FA Diluted: 0.9 | Ratio of Average Peak Area Matrix Diluted/FA Diluted: 0.6

GLEWVAVISYDGSNK [synthetic mAb CDR peptide standard]
Ratio of Average Peak Area DDM Diluted/FA Diluted: 10.3 | Ratio of Average Peak Area Matrix Diluted/FA Diluted: 4.7

LSCAASGITFSNAWMSWVR [synthetic mAb CDR peptide standard]
Ratio of Average Peak Area DDM Diluted/FA Diluted: 37.9 | Ratio of Average Peak Area Matrix Diluted/FA Diluted: 16.9

LSCAASGFTFSNYAMYWVR [synthetic mAb CDR peptide standard]
Ratio of Average Peak Area DDM Diluted/FA Diluted: 29.4 | Ratio of Average Peak Area Matrix Diluted/FA Diluted: 9.2

VVSVLTVLHQDWLNGK [synthetic mAb constant region peptide standard]
Ratio of Average Peak Area DDM Diluted/FA Diluted: 12.1 | Ratio of Average Peak Area Matrix Diluted/FA Diluted: 33.2

TNYLTHR [synthetic mAb CDR peptide standard]
Ratio of Average Peak Area DDM Diluted/FA Diluted: 1.7 | Ratio of Average Peak Area Matrix Diluted/FA Diluted: 0.4

DIATYYCQQH [synthetic mAb CDR peptide standard]
Ratio of Average Peak Area DDM Diluted/FA Diluted: 1.1 | Ratio of Average Peak Area Matrix Diluted/FA Diluted: 1.4

NQVSLTCLVK [synthetic mAb constant region peptide standard]
Ratio of Average Peak Area DDM Diluted/FA Diluted: 0.7 | Ratio of Average Peak Area Matrix Diluted/FA Diluted: 1.1

LMIYDVSK [synthetic mAb CDR peptide standard]
Ratio of Average Peak Area DDM Diluted/FA Diluted: 1.1 | Ratio of Average Peak Area Matrix Diluted/FA Diluted: 1.3

DWNQNNWF [synthetic mAb CDR peptide standard]
Ratio of Average Peak Area DDM Diluted/FA Diluted: 2.4 | Ratio of Average Peak Area Matrix Diluted/FA Diluted: 3.0
